Target: Secretory leukoproteinase inhibitor (human (endogenous in A549)) (UniProt P03973)
Chain of UniProt P03973 (P03973 26-132): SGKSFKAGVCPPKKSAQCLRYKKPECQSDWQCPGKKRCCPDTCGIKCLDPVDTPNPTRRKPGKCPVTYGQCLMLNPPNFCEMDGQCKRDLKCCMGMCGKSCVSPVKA

SLPI concentration (ELISA) in the lower Transwell compartment of A549 cells, 10 min after 10 nM NE was added to the lower compartment only, as % of control wells: 8.6 % of control
SLPI concentration (ELISA) in the upper Transwell compartment of A549 cells, 10 min after 10 nM NE was added to the upper compartment only, as % of control wells: 10.6 % of control
Substance: neutrophil elastase (from UniProt P08246 30-267) (enzyme)

Reference: article PMC2529288
